Assay results from paper PMC2910870.

What was measured:
Assay in all cases: SPR
[1] = biological target: NL3A2 (rat neuroligin 3 cholinesterase-like region, with insert A2, without insert A1) (rat)
[2] = biological target: NL3A1A2 (rat neuroligin 3 cholinesterase-like region, with inserts A1 and A2) (rat) (UniProt Q62889)
[3] = biological target: NL1A (rat neuroligin 1 cholinesterase-like region, with insert A, without insert B) (rat)
[4] = biological target: NL1B (rat neuroligin 1 cholinesterase-like region, with insert B, without insert A) (rat)
[5] = biological target: NL2Δ (rat neuroligin 2 cholinesterase-like region, without insert A) (rat)
[6] = biological target: NL3A1 (rat neuroligin 3 cholinesterase-like region, with insert A1, without insert A2) (rat)
[7] = biological target: NL1Δ (rat neuroligin 1 cholinesterase-like region, without inserts A and B) (rat)
[8] = biological target: NL1AB (rat neuroligin 1 cholinesterase-like region, with inserts A and B) (rat) (UniProt Q62765)
[9] = biological target: NL3Δ (rat neuroligin 3 cholinesterase-like region, without inserts A1 and A2) (rat)
[10] = biological target: NL2A (rat neuroligin 2 cholinesterase-like region, with insert A) (rat) (UniProt Q62888)

β-NRX1+4 (mouse β-neurexin 1 LNS domain, with splice insert 4), sequence (P0DI97 86-288): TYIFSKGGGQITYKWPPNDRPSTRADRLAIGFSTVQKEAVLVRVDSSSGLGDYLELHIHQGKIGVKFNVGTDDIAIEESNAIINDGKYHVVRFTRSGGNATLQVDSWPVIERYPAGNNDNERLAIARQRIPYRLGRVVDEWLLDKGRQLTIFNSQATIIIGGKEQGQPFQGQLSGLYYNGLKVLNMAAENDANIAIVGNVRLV
β-NRX2+4 (rat β-neurexin 2 LNS domain, with splice insert 4), sequence (Q63376 87-290): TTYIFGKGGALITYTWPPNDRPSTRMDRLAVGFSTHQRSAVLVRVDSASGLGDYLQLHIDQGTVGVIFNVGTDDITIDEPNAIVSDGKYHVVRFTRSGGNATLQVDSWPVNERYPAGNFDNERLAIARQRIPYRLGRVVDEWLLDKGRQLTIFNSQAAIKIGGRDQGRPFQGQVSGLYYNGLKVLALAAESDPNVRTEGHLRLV

Row | Substance | Kd [1] | Kd [2] | Kd [3] | Kd [4] | Kd [5] | Kd [6] | Kd [7] | Kd [8] | Kd [9] | Kd [10]
1 | β-NRX1Δ4 (mouse β-neurexin 1 LNS domain, lacking splice insert 4) (domain or fragment) | 7.15 µM | 6.57 µM | 0.845 µM | 1.16 µM | 0.964 µM | 7.45 µM | 0.828 µM | 1.21 µM | 8.17 µM | –
2 | β-NRX2+4 (rat β-neurexin 2 LNS domain, with splice insert 4) (from UniProt Q63376 87-290) (domain or fragment) | 42.2 µM | – | 3.32 µM | 5.48 µM | 3.39 µM | 20.5 µM | 3.77 µM | – | 56.8 µM | –
3 | β-NRX3Δ4 (mouse β-neurexin 3 LNS domain, lacking splice insert 4) (domain or fragment) | 11.2 µM | 10.9 µM | 0.782 µM | – | 0.418 µM | 6.26 µM | 1.02 µM | – | 10.1 µM | 0.369 µM
4 | β-NRX3+4 (mouse β-neurexin 3 LNS domain, with splice insert 4) (domain or fragment) | – | 9.39 µM | 0.246 µM | 0.365 µM | 0.262 µM | 4.32 µM | 0.332 µM | 0.393 µM | 9.73 µM | 0.239 µM
5 | β-NRX1+4 (mouse β-neurexin 1 LNS domain, with splice insert 4) (from UniProt P0DI97 86-288) (domain or fragment) | 21.9 µM | – | 2.1 µM | 2.75 µM | 3.52 µM | 12 µM | 1.54 µM | – | 23.8 µM | –
6 | β-NRX2Δ4 (rat β-neurexin 2 LNS domain, lacking splice insert 4) (domain or fragment) | – | 15.3 µM | 1.47 µM | 2.21 µM | 0.706 µM | 9.05 µM | 0.917 µM | 2.29 µM | 16.5 µM | –
